Data as given in patent US20230242675A1 (SHANGHAI EPIMAB BIOTHERAPEUTICS, published 2023).

B1: EM0005-mAb86 scFv (scFv)
scFv: QVQLQQSGAELVRPGSSVKMSCKTSGYTFTTYGINWVKQRPGQGLEWIGYIYIGNGYTEYNEKFKGKATLTSDPSSRTAYMQLSSLTSEDSAIYFCARDLMVIAPKTMDYWGQGTSVTVSSGGGGSGGGGSGGGGSDIQMNQSHKFMSTSVGDRVSITCKASQDVGTAVAWYQQKPGQSPKLLIYWASTRHTGVPDRFTGGGSGTDFTLTISNVQSEDLADYFCQQYSSYPYTFGGGTKLEMK
notes: Tested as bacterial culture supernatant (detected with anti-c-myc antibody; tags of the pCAN phagemid not spelled out for library clones) and as scFv-displaying phage in FACS; also called 3A3
B2: FIT1012-3a TGFβ/PD-L1 bispecific binding protein (bispecific antibody, human IgG1, kappa)
heavy: not shown
chain: TIPPHVQKSVNNDMIVTDNNGAVKFPQLCKFCDVRFSTCDNQKSCMSNCSITSICEKPQEVCVAVWRKNDENITLETVCHDPKLPYHDFILEDAASPKCIMKEKKKPGETFFMCSCSSDECNDNIIFSEEYNTSNPDASTKGPSVFPLAPSSKSTSGGTAALGCLVKDYFPEPVTVSWNSGALTSGVHTFPAVLQSSGLYSLSSVVTVPSSSLGTQTYICNVNHKPSNTKVDKKVEPKSC
light: DIQMTQSPSSVSASVGDRVTITCKASQDVGTAVAWYQQKPGKAPKLLIYWASTRHTGVPDRFTGSGSGTDFTLTISSLQPEDFATYYCQQYSSYPYTFGGGTKVEIKRTVAAPSVFIFPPSDEQLKSGTASVVCLLNNFYPREAKVQWKVDNALQSGNSQESVTEQDSKDSTYSLSSTLTLSKADYEKHKVYACEVTHQGLSSPVTKSFNRGEC
notes: Six-chain protein; anti-PD-L1 moiety from HuEM0005-86-6 with G55A; four TGFβR2(ECD) traps
B3: FIT1012-4a TGFβ/PD-L1 bispecific binding protein (bispecific antibody, human IgG1, kappa)
heavy: not shown
chain: B2 chain
light: not shown
notes: Six-chain protein; anti-PD-L1 moiety from HuEM0005-87-1; four TGFβR2(ECD) traps
B4: EM0005-mAb90 scFv (scFv)
scFv: QVQLKQSGAELVRPGSSVKMSCKTSGYTFTSHSINWVKQRPGQGLEWIGYMYIGNGYTEYNEKFKGKATLTSDTSSTTAYMQLSSLTSEDSAIYFCAKITPVVAPYVMDYWGQGTSVTVSSGGGGSGGGGSGGGGSDIVMTQTHKFMSTSVGDRVSITCKASQDVGTAVAWYQQKPGQSPKLLIYWASTRHTGVPDRFTGSGSGTDFTLTISNVQSEDLADYFCQQYSSYPYTFGGGTKLELK
notes: Tested as bacterial culture supernatant and as scFv-displaying phage in FACS; tags of the pCAN phagemid not spelled out for library clones; also called 6C11
B5: EM0005-mAb87 scFv (scFv)
scFv: EVQLQQSGPELVKPGASVKISCKASGYSFTDYYINWVKQSPEKSLEWIGETIPNTGGTTYNQKFKAKATLTVDKSSSTAYMQLKSLTSEDSAVYYCARYQSGSPFAYWGQGTPVTVSSGGGGSGGGGSGGGGSDIVMTQSQKFMSTTVGDRVSITCKASQNVGTAVAWYQQKPGQSPKLLIYSASNRYTGVPDRFTGSGSGTDFTLTISNMQSEDLADYFCQQHYSTPYTFGGGTKLEIK
notes: Tested as bacterial culture supernatant and as scFv-displaying phage in FACS; tags of the pCAN phagemid not spelled out for library clones; also called 4E8

Tests used:
[1] = target: T1, human PD-L1/His fusion protein (human, UniProt Q9NZQ7 19-239); assay: RBA ELISA: coated PD-L1/His, competitor biotinylated PD-1/Fc
Experimental: Anti-PD-L1 scFv supernatants were tested for ability to block PD-L1/PD-1 interaction. […] The mixtures were added to individual wells and incubated at room temperature for 30 minutes. […] Bound signal was developed by Streptavidin-HRP (Cat. No. S2468, Sigma) and read by a plate reader at a wavelength of 450 nm. A low signal, as with the positive control, indicated blocking activity.

[2] = target: T2, cynomolgus (cyno) PD-L1/His fusion protein (cynomolgus, UniProt G7PSE7 19-239); assay: ELISA, scFv supernatant on cynomolgus PD-L1
T2 construct: also called cynomolgus PD-L1; not shown: His tag

[3] = target: human PD-L1/Fc Fusion Protein (human); assay: ELISA, scFv supernatant on coated human PD-L1/Fc
Experimental: Two hundred (200) single bacterial clones from each group of the third panning round were isolated and grown in culture to express a single scFv monoclonal antibodies (mAbs). The scFv mAbs were expressed in the bacterial culture supernatants, which were primarily screened by ELISA. […] 20 ng of human PD-L1/Fc protein in 100 μL PBS, pH 7.4, were directly coated in each well of a 96-well plate. An HRP-linked anti-c-myc antibody (Cat. No. Ab1261, Abcam) and TMB reagent were used to detect and develop the ELISA signal, which was read using a plate reader (SpectraMax® Plus 384; Molecular Devices) at a wavelength of 450 nm.

[4] = target: T3, human PD-L1 on the cell surface (CHO-K1 cells stably expressing human PD-L1) (human, UniProt Q9NZQ7 19-290); assay: FACS, scFv-phage on CHO-K1/PD-L1 cells
T3 construct: whole, on cells; Also used here for PD-L1 on the monocyte-derived dendritic cells of the MLR assay (functional rows); also called CHO-K1/PD-L1; CHOK1-PD-L1
Experimental: After characterization of ability to bind PD-L1 in ELISA and RBA ELISA, the PD-L1-binding positive scFv clones were sequenced. […] Briefly, 2×10⁵ cells of the CHO-K1/PD-L1 cell line stably expressing huPD-L1 described above were added to round-bottom wells of a 96-well plate (Cat. No. 3799, Corning). A phage supernatant from an overnight culture that had been rescued by hyper phage was added. The mixture of CHO-K1/PD-L1 cells and phage supernatant in each well was diluted with 50 μl of FACS buffer (PBS with 2% FBS). The anti-PD-L1 scFv-phages were detected with murine anti-M13 phage antibody (Cat. No. 11973-MM05, Sino biological) and then with Donkey anti-Mouse IgG (H+L) Highly Cross-Adsorbed, Alexa Fluor® 488 conjugate, secondary antibody (Cat. No. A21202, Invitrogen). Cell fluorescence was monitored using a flow cytometer.

[5] = target: T1, human PD-L1/His fusion protein; assay: BLI Octet RED96, single concentration of human PD-L1-his
Experimental: Briefly, antibodies were characterized for affinities and binding kinetics by biolayer interferometry (BLI) using an Octet® RED96 sensor device (Pall ForteBio LLC). Antibodies were captured by anti-hIgG Fc Capture (AHC) Biosensors (Pall) at a concentration of 100 nM for 30 seconds. Sensors were then dipped into running buffer (1×, pH7.2, PBS, 0.05% Tween 20, 0.1% BSA) for 60 seconds to check baseline. Binding was measured by dipping sensors into a single concentration of recombinant human PD-L1-his protein. Dissociation was followed by dipping sensors into running buffer for 1200 seconds. The association and dissociation curves were fitted to a 1:1 Langmuir binding model using the manufacturer's data analysis software (ForteBio Data Analysis software, Pall ForteBio LLC).

[6] = target: T1, human PD-L1/His fusion protein; assay: BLI Octet Red, binding protein on AHC sensor, PD-L1-his in solution
Experimental: Sensors were then dipped into running buffer (1×pH 7.2 PBS, 0.05% Tween 20, 0.1% BSA) for 60 seconds to check baseline. Binding was measured by dipping sensors into a series diluted concentration of recombinant human PD-L1-his protein. Dissociation was followed by dipping sensors into running buffer for 1200 seconds. The association and dissociation curves were fitted to a 1:1 Langmuir binding model using ForteBio Data Analysis software (Pall). The equilibrium dissociation constant KD (M) of the reaction between antibodies and related target proteins was then calculated from the kinetic rate constants using the formula KD=koff/kₒₙ.

[7] = target: T4, biotinylated human PD-L1 protein (ACROBiosystems, H82E5) (human, UniProt Q9NZQ7 19-238, biotinylated (site not stated)); assay: dual-binding ELISA: human TGFβ2 coated, 5 nM binding protein bound to it, biotinylated human PD-L1 titrated 0.0006-10 nM (axis labelled Ab (nM)), streptavidin-HRP, OD450; the EC50 is of the titrated PD-L1
T4 construct: also called biotinylated PD-L1
Experimental: (§1) Briefly, ELISA plates were incubated overnight at 4° C. with 100 μl of a human TGFβ isoform diluted in PBS buffer, pH 7.4, at 1 μg/ml, to allow the human TGFβ isoform to coat (adsorb to) the surface of the wells. Plates were washed three times in washing buffer (PBS containing 0.05% Tween 20) and blocked for 1 hour at 37° C. with 200 μl per well blocking buffer (1% BSA in PBS containing 0.05% Tween 20). […] The wells were washed four times with washing buffer, and Streptavidin-HRP (Merck, RABHRP3) was diluted 1:10000 and added to the wells at 100 μl per well. The plates were incubated for 1 hour at 37° C. and washed four times in washing buffer. 100 μl of tetramethylbenzidine (TMB) chromogenic solution were added per well.

human TGFβ1 = target: T5, human TGFβ1 (human, UniProt P01137 279-390); assay: ELISA: human TGFβ1 coated (1 µg/ml), binding protein titrated 0.0006-10 nM, anti-human IgG Fc-HRP, OD450
T5 construct: also called TGFβ isoform 1; TGFβ1 (Cat. No. CA59, Novoprotein)
Experimental: (§2) Accordingly, each of the wells of the ELISA microplates provided a reaction mixture to test the ability of a particular binding protein at a particular concentration to bind to a particular TGFβ isoform. […] Plates were washed three times in washing buffer (PBS containing 0.05% Tween 20) and blocked for 1 hour at 37° C. with 200 μl per well of blocking buffer (1% BSA in PBS containing 0.05% Tween 20). […] The wells containing the various binding mixtures were incubated at 37° C. for 1 hour to permit binding to TGFβ protein on the surface of the wells. Thereafter, the wells were washed four times with washing buffer, and anti-human IgG Fc HRP (Sigma, Catalog No. A0170) was diluted 1:10000 and added to the wells at 100 μl per well to detect binding protein that was bound to TGFβ protein present on the surface of a well. The plates were incubated for 1 hour at 37° C. and washed four times with washing buffer. 100 μl of tetramethylbenzidine (TMB) chromogenic solution were added per well. Following color development, the reaction was stopped with 1 N HCl, and absorbance at 450 nm (OD450) was measured on a VARIOSKAN™ LUX microplate reader (Thermo Scientific™).

[8] = target: T4, biotinylated human PD-L1 protein …; assay: dual-binding ELISA: human TGFβ3 coated, 5 nM binding protein bound to it, biotinylated human PD-L1 titrated 0.0006-10 nM (axis labelled Ab (nM)), streptavidin-HRP, OD450; the EC50 is of the titrated PD-L1
Experimental: as §1

human TGFβ2 = target: T6, human TGFβ2 (human, UniProt P61812 303-414); assay: ELISA: human TGFβ2 coated (1 µg/ml), binding protein titrated 0.0006-10 nM, anti-human IgG Fc-HRP, OD450
T6 construct: also called TGFβ isoform 2; TGFβ2 (Cat. No. CJ79, Novoprotein)
T6 sequence (looked up): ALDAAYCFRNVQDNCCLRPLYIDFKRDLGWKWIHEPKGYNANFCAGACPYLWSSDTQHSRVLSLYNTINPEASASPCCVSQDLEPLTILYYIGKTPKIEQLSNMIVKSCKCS
Experimental: as §2

T4 sequence (Q9NZQ7 19-238 limits assumed): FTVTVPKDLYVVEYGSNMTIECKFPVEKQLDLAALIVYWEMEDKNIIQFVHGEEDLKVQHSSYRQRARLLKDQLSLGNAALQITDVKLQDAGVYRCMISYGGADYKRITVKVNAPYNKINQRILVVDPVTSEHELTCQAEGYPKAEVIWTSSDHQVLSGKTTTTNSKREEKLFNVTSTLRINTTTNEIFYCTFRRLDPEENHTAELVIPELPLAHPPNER
T2 sequence (G7PSE7 entry or part of it): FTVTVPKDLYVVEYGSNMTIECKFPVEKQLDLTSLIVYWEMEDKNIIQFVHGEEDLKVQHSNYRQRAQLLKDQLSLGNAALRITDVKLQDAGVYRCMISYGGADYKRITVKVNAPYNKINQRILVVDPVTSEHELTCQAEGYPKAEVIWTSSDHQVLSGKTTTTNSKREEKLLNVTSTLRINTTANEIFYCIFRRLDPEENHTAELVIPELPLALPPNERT
T3 sequence (Q9NZQ7 19-290): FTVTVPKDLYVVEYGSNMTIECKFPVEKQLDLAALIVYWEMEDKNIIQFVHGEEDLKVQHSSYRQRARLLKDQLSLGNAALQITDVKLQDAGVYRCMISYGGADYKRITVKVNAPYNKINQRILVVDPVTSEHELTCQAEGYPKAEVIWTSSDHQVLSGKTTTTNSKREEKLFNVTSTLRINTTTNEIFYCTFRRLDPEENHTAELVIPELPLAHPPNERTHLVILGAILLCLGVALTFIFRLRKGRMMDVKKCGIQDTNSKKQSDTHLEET
T1 sequence (Q9NZQ7 19-239 limits assumed): as the sequence (G7PSE7 entry or part of it) above, with T33A, S34A, N62S, Q68R, R82Q, L173F, A185T, I192T, L215H counted along it
human PD-L1/Fc Fusion Protein (human), sequence (chain, as listed by the source limits assumed): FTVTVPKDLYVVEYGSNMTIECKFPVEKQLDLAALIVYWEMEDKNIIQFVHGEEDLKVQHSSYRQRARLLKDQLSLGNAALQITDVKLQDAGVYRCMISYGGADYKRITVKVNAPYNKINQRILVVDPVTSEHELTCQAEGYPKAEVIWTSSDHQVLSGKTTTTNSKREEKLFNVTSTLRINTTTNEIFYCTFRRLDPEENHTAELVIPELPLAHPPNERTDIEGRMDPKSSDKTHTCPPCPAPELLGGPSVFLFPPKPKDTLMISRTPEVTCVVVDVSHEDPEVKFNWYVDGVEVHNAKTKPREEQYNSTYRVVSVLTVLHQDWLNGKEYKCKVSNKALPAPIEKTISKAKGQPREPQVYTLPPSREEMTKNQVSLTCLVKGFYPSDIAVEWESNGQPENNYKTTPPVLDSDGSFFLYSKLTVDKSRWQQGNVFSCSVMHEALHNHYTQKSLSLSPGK
T5 sequence (P01137 279-390 limits assumed): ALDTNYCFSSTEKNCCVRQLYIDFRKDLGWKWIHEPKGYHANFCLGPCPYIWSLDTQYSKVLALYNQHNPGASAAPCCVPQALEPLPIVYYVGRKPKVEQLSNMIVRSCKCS

| Binder | RBA (% inhibition) [1] [%] | EC50 [2] [nM] | EC50 [3] [nM] | Binding to CHOK1-PD-L1 (X Geo Mean) [4] | koff [5] [s⁻¹] | Kd [6] [nM] | koff [6] [s⁻¹] | kon [6] [M⁻¹ s⁻¹] | EC50 [7] [nM] | EC50 (read off the curve) (human TGFβ1) [nM] | EC50 [8] [nM] | EC50 (human TGFβ2) [nM] | EC50 (human TGFβ1) [nM] |
| --- | --- | --- | --- | --- | --- | --- | --- | --- | --- | --- | --- | --- | --- |
| B1 | 100 | 4 | 1.19 | 27.6 | 0.000197 |  |  |  |  |  |  |  |  |
| B2 |  |  |  |  |  | 0.609 | 0.000344 | 564000 | 0.205 | ~0.4 | 0.205 | 0.525 |  |
| B3 |  |  |  |  |  | 1.3 |  |  | 0.114 |  | 0.114 | 0.288 | 0.29 |
| B4 | 100 | 4 |  | 36.6 | 0.000232 |  |  |  |  |  |  |  |  |
| B5 | 99.8 | 4 | 3.02 | 49.7 | 0.000206 |  |  |  |  |  |  |  |  |
